Data from the nanobody polyreactivity screen of Harvey et al. (2022).

Assay: yeast display, Sf9 membrane polyspecificity reagent, FACS + sequencing; frameworks hold sequencing errors
Method in brief: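 Polyreactivity labels are assigned by the sorting gate from which each nanobody was recovered. The gates were low and high (top ~1%), set on anti-HA fluorescence for expression and streptavidin fluorescence for reagent binding. Before sorting, galactose-induced (36–48 hours) yeast display cells were stained for 1 hour at 4 °C with 10% biotinylated, detergent-solubilized Sf9 membrane reagent.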

Row | Sequence | polyreactivity (PSR sort gate)
1 | QVQLVESGGGLVQAGGSLRLSCAASGSIFWDYAMGRYRQAPGKERELVASITSGGSTYYADSVKGRFTISRDNAKNTVYLQMNSLKPEDTAVYYCAADGHTRHWGQTGRGAMYYWGQGTQVTVSS | low polyreactivity
2 | QVQLVESGGGLVQAGGSLRLSCAASGSIFWFNAMGWYRQAPGKEREFVASISRSGGTTYYAHSVKGRFTISRDNAKNTVYLQMNSLKPEDTAVYYFNARAYGNGLGTGYFGKHRYDYWGQGTQVTVSS | low polyreactivity
3 | QVQLVESGGGLVQAGGSLRLSCAASGSIFWGYAMGWYRQAPGKERELVASIGGDSTNYADSVKGRFTISRDNAKNTVYIQMNSLKQEYTPVYYCAARYRTDYYPEYEYWGQGTEVTVSS | low polyreactivity
4 | QVQLVESGGGLVQAGGSLRLSCAASGSIFWGYAMGWYRQAPGKERELVATITYGGDSTYYADSVKGRFTISRDNANNTVFLQMNSLKTEDTAVYYCNVGVEPYDYDYWGQCTQVTVSS | low polyreactivity
5 | QVQLVESGGGLVQAGGSLRLSCAASGSIFWGYEMGSYRQAPGKERELVAAINRGGSTYYADSVKGRFTRSRDNAKNTVYLQMNSLKPEDTAVYYCAAGYPSWYYGYPYDSWGQGTQVTVSS | low polyreactivity
6 | QVQLVESGGGLVQAGGSLRLSCAASGSIFWLYAMGWYRQATGKERELVAAINWTGGSTNYADSVKGRFTISRDNAKNTVYLQMNSLKPEDTAVYFCAAEGVPDALDRVYWGQGTQVTVSS | low polyreactivity
7 | QVQLVESGGGLVQAGGSLRLSCAASGSIFWPNAMGWYRQAPGKERELVAAIRRSGGSTYYADSVKGRFTISRDNAKNTVYLQMNSLKPEDTAVYYCAARADLHRRVRNIYYSWGQGTQVTVSS | low polyreactivity
8 | QVQLVESGGGLVQAGGSLRLSCAASGSIFWPNSMGWYRQAPGKERELVAAISWGTGSTYYADSVKGRFTISRDNAKNTVYLQMNSLKPEDTAVYYCAADGAYLDPYYDYWGQGTQVTVSS | low polyreactivity
9 | QVQLVESGGGLVQAGGSLRLSCAASGSIFWPYAMGWYRQAPGKEREFVATISSSGSRTHYADSVKGRFTISRDNAKNTVSLQMNSLKPEDTAVYYCNADNPYSDGADSLGNYWGQGTQVTVSS | low polyreactivity
10 | QVQLVESGGGLVQAGGSLRLSCAASGSIFWQNGMGWYRQAPGKEREFVAAITRTGGSTYYADSVKGRFTISRDNAKNTVYLQMNSLKPEDTAVYYCAARGGYRYTRYDYWGQGTQVTVSS | high polyreactivity
11 | QVQLVESGGGLVQAGGSLRLSCAASGSIFWRNAMGWYRQAPGKERALVAAISGNGGTTYYADSVKGRFTISRDYAKNTVYLQINSLKPEDTAVYYCAKVGKTYRTYEDWGQGTQVTVSS | high polyreactivity
12 | QVQLVESGGGLVQAGGSLRLSCAASGSIFWSNAMGWYRQAPGKERELVAAINQSGTSTYYADSVKGRFTISRDNAKNTVYLQMNSLKTEDTAVYYCAADQVGWTYDYWGQGTQVSVSS | low polyreactivity
13 | QVQLVESGGGLVQAGGSLRLSCAASGSIFWSNAMGWYRQAPGKERELVAAITWSGGSTYADSVKGRFTISRDNAKNTVYLQMNSLKPEDTAVYYCAAERAILSSDKQSLWRFDYWGQGTQVTVSS | low polyreactivity
14 | QVQLVESGGGLVQAGGSLRLSCAASGSIFWSNAMGWYRQAPGKERELVAAITWSGGSTYADSVKGRFTISRDNAKNTVYLQMNSLKPEDTAVYYCATDYPWAWFESDYWGQGTQVTVSS | low polyreactivity
15 | QVQLVESGGGLVQAGGSLRLSCAASGSIFWSNDMGWYRQAPGKERELVAAITITGDTTYYADSVKGRFTISRDNAKNTVYLQMNSLKPEDTAVYYCAAVEVRRVADYGFCLLDYWGQGTQVTVSS | high polyreactivity
16 | QVQLVESGGGLVQAGGSLRLSCAASGSIFWSYAMGWYRQAPGKERELVAAITWGCGSTNYADSVKGRFTISRDNAKNTVYLQMNSLIAEDTGVYYCATDNRYVVDYDYWGQGTQVTVSS | high polyreactivity

Row | Sequence | polyreactivity (PSR sort gate)
17 | QVQLVESGGGLVQAGGSLRLSCAASGSIFWTIAMGWYRQSPGKERELVASIHSSDASTDYADSVKGRFTISRDNAKNTVYLKMNSLKPEDTAVYYCNAAGAYPYYSEDYYWGQGTQVTVSS | low polyreactivity
18 | QVQLVESGGGLVQAGGSLRLSCAASGSIFWTNAMGCYRQAPGKERELVASIHSSDASTDYADSVKGRFTISRDNEKNTVYLQMNSLKPEDTAVYYCNAAGAYPYYSEDYYWGQGSQVTVSS | low polyreactivity
19 | QVQLVESGGGLVQAGGSLRLSCAASGSIFWTNAMGWYRQAPGKERELVAAIRVSTGSTYYADSVKGRFTISRDNAKNTVYLQMNSLKPEVTAVYYFAARTYGWGYDYWGQGTQVTVSS | low polyreactivity
20 | QVQLVESGGGLVQAGGSLRLSCAASGSIFWVYAMGWYRQAPGKEREFVATISTDGGSTHYADSVKGRFTISRDNAKNTFYLQMNSLKPEDTAVYYCAADTPWYDDNYDYWGQGTQVTVSS | low polyreactivity
21 | QVQLVESGGGLVQAGGSLRLSCAASGSIFWVYTMGWYREAPGKERELVAASRSRGGSTYYADSVKGRFTISRDKAKNTVYLQMNSLKPEDTAVYYGNADYYYEVDSWGQGTQVTVSS | low polyreactivity
22 | QVQLVESGGGLVQAGGSLRLSCAASGSIFWWNAMGWYRQAPGKERELVAGISRGGSTYYADSVKGRFTISRDNAKNTVYLQMNSLKPEDTAVYYCNADSDPVPAGYDYWGQGTQVTLSS | low polyreactivity
23 | QVQLVESGGGLVQAGGSLRLSCAASGSIFWWNAMGWYRQAPGKERELVARITRGGTTYYADSVKGRFTISRDNAKNTVYLQMNSLKPEDTAVYSCNAVSGWSRYDFWGQGSQVTVSS | low polyreactivity
24 | QVQLVESGGGLVQAGGSLRLSCAASGSIFWWNTMGWYRQAPGTERELVAAITFSGGSTYYADSVKGRFTISRDNAKNTVYLQMNSLKPEDTAVYYCNADGWVSVRGTWSDGGYWGQGTQVTVSS | low polyreactivity
25 | QVQLVESGGGLVQAGGSLRLSCAASGSIFWYNAMGWYRQAPGKERELVAAIRWRGGSTYYADSVKGRFTISRDNAKNTVYLQMNSLKPEDTAVYYCAAQVYVSQLYTSYYYWGQGTQVTVSS | high polyreactivity
26 | QVQLVESGGGLVQAGGSLRLSCAASGSIFWYNAMGWYRQAPGKERELVAAISVGGGSTSSADSVKGRFTISRDNAKNTVYLQMHSLKPEDTAVYYCNSVRYYRLFAHYGEYGYWGQGTQVTVSS | high polyreactivity
27 | QVQLVESGGGLVQAGGSLRLSCAASGSIFWYNAMGWYRQAPGKERELVAGITSGGDTNYADSVKGRFTISRDNAKNTVYLQMNSLKPEDTAVYYCAKRWYGGRRYDYWGQGTQVTVSS | low polyreactivity
28 | QVQLVESGGGLVQAGGSLRLSCAASGSIFWYYAMGWYRQAPGKERELVAAISRSGGSTYYADSVKGRFTISRDNAKNTVYLQMNSLKPEDTAVYYCAAGYSSLRRFGVYYWGQGTQVTVSS | high polyreactivity
29 | QVQLVESGGGLVQAGGSLRLSCAASGSIFWYYAMGWYRQAPGKERELVAGITRGGSTSYADSVKGRFTISRDNAKKTVYLQMNSLKPEDTAVYYCAKRNPYSRYGYWGQGTQVTVSS | high polyreactivity
30 | QVQLVESGGGLVQAGGSLRLSCAASGSIFYAYAMGWYRQAPGKERELVAAISASGGSTYYADSVKGRFTISRDNAKNTVYLQMNSLKPEDTAVYYCAALTYSTYQTAYRRYPKNKYWGQGTQVTVSS | high polyreactivity
31 | QVQLVESGGGLVQAGGSLRLSCAASGSIFYAYAMGWYRQAPGKERQLVAAIRSSDSRTYYADSVKGRFTISRDNAKNTVYLQMNSLKPEDTGVYYCDADGSRKVKFDYWGQGTQVTVSS | high polyreactivity
32 | QVQLVESGGGLVQAGGSLRLSCAASGSIFYAYAMGWYRQAPRKERELVAAITRSGGSTYYADSVKGRFTISRDNAKNTVYLQMNSLKPEDTAVYYCAAVSRSRRMDFWGQGTQVTVSS | high polyreactivity
